Article PMC3527510, “Bin2 Is a Membrane Sculpting N-BAR Protein That Influences Leucocyte Podosomes, Motility and Phagocytosis” (PLoS ONE, 2012)
Values belong to the binder of their own block, whether it stands above or below them.

B3: GST-hBin2-CT (C-terminal region of human Bin2, amino acids 237-565) (domain or fragment, UniProt Q9UBW5 237-565, looked up)
chain: KLEKQHSNKVFVVKGLSSSSRRSLVISPPVRTATVSSPLTSPTSPSTLSLKSESESVSATEDLAPDAAQGEDNSEIKELLEEEEIEKEGSEASSSEEDEPLPACNGPAQAQPSPTTERAKSQEEVLPSSTTPSPGGALSPSGQPSSSATEVVLRTRTASEGSEQPKKRASIQRTSAPPSRPPPPRATASPRPSSGNIPSSPTASGGGSPTSPRASLGTGTASPRTSLEVSPNPEPPEKPVRTPEAKENENIHNQNPEELCTSPTLMTSQVASEPGEAKKMEDKEKDNKLISANSSEGQDQLQVSMVPENNNLTAPEPQEEVSTSENPQL
notes: Cloned into Nde1/Not1 sites of pGEX-4T-2; also called GST-Bin2-CT; BCT; source: E. coli DH5α, purified (glutathione sepharose, eluted with glutathione, dialysed)

Experiments:
[1] = target: T1, GST-hBin2-CT (C-terminal region of human Bin2, amino acids 237-565) (Homo sapiens (Human), UniProt Q9UBW5); assay: GST pull-down, Coomassie
T1 chain: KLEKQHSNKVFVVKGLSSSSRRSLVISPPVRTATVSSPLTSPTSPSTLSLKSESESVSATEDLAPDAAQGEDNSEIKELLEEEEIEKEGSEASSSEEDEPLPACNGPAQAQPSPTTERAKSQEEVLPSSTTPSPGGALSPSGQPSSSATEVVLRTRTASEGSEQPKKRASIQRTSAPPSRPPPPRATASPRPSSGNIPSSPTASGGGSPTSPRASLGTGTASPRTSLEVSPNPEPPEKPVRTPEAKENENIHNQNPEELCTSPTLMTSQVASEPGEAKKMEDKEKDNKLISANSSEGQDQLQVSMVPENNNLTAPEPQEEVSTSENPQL

[2] = target: B3; assay: pull-down; 10 µg GST fusion or GST on glutathione beads with rising amounts of purified prey, 60 min; 20 mM HEPES pH 7.5, 150 mM NaCl, 1 mM DTT, 0.1% Triton X-100; SDS-PAGE, Coomassie; settings: both partners purified
[3] = target: the molecule itself; assay: crystal structure; hanging-drop crystals in 10% MPD, 7% PEG4000, 0.1 M sodium citrate pH 5.3, 20°C; MIRAS phasing; two molecules in the asymmetric unit
[4] = target: T2, Full-length rat Endophilin A1 (rat, UniProt O35179 1-352); assay: pull-down; 10 µg GST fusion or GST on glutathione beads with rising amounts of purified prey, 60 min; 20 mM HEPES pH 7.5, 150 mM NaCl, 1 mM DTT, 0.1% Triton X-100; SDS-PAGE, Coomassie; settings: both partners purified
T2 construct: Endophilin A1, rat, full length; Cloned into pGEX-6P-2; also called rEndoA1; EndoA1

[5] = target: the molecule itself; assay: SEC; gel filtration profiles of WT rBin2 N-BAR against the V81R,S214E mutant, with molecular weight standards
[6] = target: the molecule itself; assay: AUC; equilibrium sedimentation, 20°C, 20,000, 30,000 and 40,000 rpm; 20 mM Tris, 200 mM NaCl, 0.1 mM DTT; dimer to monomers

T2 sequence (O35179 whole entry, the tested form may be a part): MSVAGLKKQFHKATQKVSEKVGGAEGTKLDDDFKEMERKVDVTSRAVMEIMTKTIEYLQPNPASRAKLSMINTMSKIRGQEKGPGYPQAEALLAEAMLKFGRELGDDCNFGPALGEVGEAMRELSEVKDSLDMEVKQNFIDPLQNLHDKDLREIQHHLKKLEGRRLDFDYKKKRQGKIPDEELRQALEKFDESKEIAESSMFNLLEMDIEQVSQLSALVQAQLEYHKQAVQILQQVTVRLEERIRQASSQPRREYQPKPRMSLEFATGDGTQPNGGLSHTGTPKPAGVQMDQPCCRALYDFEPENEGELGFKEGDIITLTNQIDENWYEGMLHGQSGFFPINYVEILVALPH

binding result [1]: binds | binding result [2]: binds
B1: Human α-PIX SH3 domain (amino acids 160-222) (domain or fragment, UniProt Q15052 160-222, looked up)
chain: SHQLIVKARFNFKQTNEDELSVCKGDIIYVTRVEEGGWWEGTLNGRTGWFPSNYVREIKSSER
notes: α-PIX, human, SH3 domain, residues 160-222; Cloned into pGEX-4T-2

B2: Human Bin2 BAR domain (residues 20-238; Bin2 N-BAR Δ19) (domain or fragment, UniProt Q9UBW5 20-238, looked up)
chain: KFSRAQEKVLQKLGKAVETKDERFEQSASNFYQQQAEGHKLYKDLKNFLSAVKVMHESSKRVSETLQEIYSSEWDGHEELKAIVWNNDLLWEDYEEKLADQAVRTMEIYVAQFSEIKERIAKRGRKLVDYDSARHHLEAVQNAKKKDEAKTAKAEEEFNKAQTVFEDLNQELLEELPILYNSRIGCYVTIFQNISNLRDVFYREMSKLNHNLYEVMSKL
notes: Bridging integrator-2 (Bin2, BRAP1), human, residues 20-238; human Bin2 has 565 amino acids; the final model holds residues 37-238; Cloned into BamH1/Xho1 sites of pGEX-4T-2; also called hBin2 BAR; Bin2-NTΔ19; source: E. coli DH5α, purified (glutathione sepharose, thrombin cleavage, HiTrap Q, gel filtration)
binding result [3]: binds

Binder: B3
binding result [4]: binds

B4: Rat Bin2 N-BAR domain (1-238), wild type (domain or fragment, UniProt Q68FR2 1-238, looked up)
chain: MAEGKAGGAAGLFAKQMQKKFSRAQEKVLQKLGKTVETKDERFEQSASNFYQQQAEGHRLYKDLKNFLSAVKVMRESSKRVSETLQEIYNSDWDGHEDLKAIVGNNDLLWEDYEEKLADQALRTMENYVSQFSEVKERIAKRGRKLVDYDSARHHLEAVQNAKKKDEAKMAKAEEDFSKAQVVFEDLNQELLEELPVLYNSRIGCYVTVFQNISNLRDVFYREMSKLNHSLYEVMSKL
notes: Bridging integrator-2 (Bin2), rat, residues 1-238; also called WT rBin2 N-BAR
binding result [5]: binds

B5: Rat Bin2 N-BAR V81R,S214E mutant (domain or fragment, UniProt Q68FR2 1-238, looked up)
chain: MAEGKAGGAAGLFAKQMQKKFSRAQEKVLQKLGKTVETKDERFEQSASNFYQQQAEGHRLYKDLKNFLSAVKVMRESSKRRSETLQEIYNSDWDGHEDLKAIVGNNDLLWEDYEEKLADQALRTMENYVSQFSEVKERIAKRGRKLVDYDSARHHLEAVQNAKKKDEAKMAKAEEDFSKAQVVFEDLNQELLEELPVLYNSRIGCYVTVFQNIENLRDVFYREMSKLNHSLYEVMSKL
notes: also called rBin2 N-BAR V81R,S214E; dimerization mutant
binding result [5]: binds

B6: Human Bin2 N-BAR domain (1-238) (domain or fragment, UniProt Q9UBW5 1-238, looked up)
chain: MAEGKAGGAAGLFAKQVQKKFSRAQEKVLQKLGKAVETKDERFEQSASNFYQQQAEGHKLYKDLKNFLSAVKVMHESSKRVSETLQEIYSSEWDGHEELKAIVWNNDLLWEDYEEKLADQAVRTMEIYVAQFSEIKERIAKRGRKLVDYDSARHHLEAVQNAKKKDEAKTAKAEEEFNKAQTVFEDLNQELLEELPILYNSRIGCYVTIFQNISNLRDVFYREMSKLNHNLYEVMSKL
notes: Bridging integrator-2 (Bin2, BRAP1), human, residues 1-238; also called hBin2 N-BAR; source: E. coli DH5α, purified (glutathione sepharose, thrombin cleavage, HiTrap Q, gel filtration)
Kd [6]: 7 µM
